Like-named read-outs stand apart in the source and are kept apart here.
Key:
[1] = molecular target: mouse IL-21 receptor protein with the Fc region of human IgG1 (mouse) (UniProt Q9JHX3); assay: SPR; Biacore 8K; receptor immobilised on CM5 chip by amine coupling, 25 °C, PBS-P running buffer; analytes with 5% DMSO injected serially; steady-state affinity model
[2] = molecular target: mouse IL-21 receptor protein with the Fc region of human IgG1 (mouse) (UniProt Q9JHX3); assay: as above; remark: listed apart in the source

- Kd [1]: 12.6 µM
- Kd [2]: 29.4 µM
Substance: salivaricin A2 (peptide)

From PMC9596850, “Tonsillar Microbiome‐Derived Lantibiotics Induce Structural Changes of IL‐6 and IL‐21 Receptors and Modulate Host Immunity” (Advanced Science, 2022)
